Results taken from patent publication US6630572.

Key:
[1] = biological target: high-affinity cell surface thrombin receptor on mouse embryo (ME) cells (mouse) (UniProt P30558); experiment: competition with [^125I]-alpha-thrombin (1 nM) for specific binding to quiescent ME cells, 23 C
[2] = biological target: high-affinity cell surface thrombin receptor on mouse embryo (ME) cells (mouse) (UniProt P30558); experiment: competition with [^125I]-alpha-thrombin on ME cells; reference p508-530
[3] = biological target: high-affinity cell surface thrombin receptor on mouse embryo (ME) cells (mouse) (UniProt P30558); experiment: cell-based or functional assay
[4] = biological target: high-affinity cell surface thrombin receptor on mouse embryo (ME) cells (mouse) (UniProt P30558); experiment: competition with [^125I]-alpha-thrombin (1 nM) on quiescent ME cells; at 2.7 uM peptide
[5] = biological target: high-affinity cell surface thrombin receptor on mouse embryo (ME) cells (mouse) (UniProt P30558); experiment: competition with [^125I]-alpha-thrombin on ME cells
[6] = biological target: high-affinity cell surface thrombin receptor on mouse embryo (ME) cells (mouse) (UniProt P30558); experiment: competition with [^125I]-alpha-thrombin (1 nM) on quiescent ME cells

Concentration Required for 30% Inhibition [1]: 300 nM | fold higher concentration for 30% inhibition than p508-530 [2]: 50 fold | inhibition of alpha-thrombin stimulated DNA synthesis in ME cells by 625 nM p517-520, at 0.8 nM alpha-thrombin [3]: 75% | inhibition of alpha-thrombin stimulated DNA synthesis in ME cells by 625 nM p517-520, at 13.0 nM alpha-thrombin [3]: 35% | molar excess of p517-520 over alpha-thrombin required for inhibition of stimulation [3]: 500 to 1000 fold | Maximal % Inhibition [4]: 50% | percent of [^125I]-alpha-thrombin binding competed [5]: 30 to 50% | concentration at Maximal % Inhibition [6]: 2.7 µM
Binder: RGDA [synthetic peptide p517-520 (residues 517 to 520 of human prothrombin)]
